In paper PMC4689063:

Biological target: Sam68-6H (UniProt Q07666 1-443)
Assay: EMSA
Settings: protein: recombinant; tags: 6xHis (pET30c+); chain copies: 2; label: 5' biotin; two UAAA motifs predicted unpaired

Sequence of Sam68-6H (Q07666 whole entry): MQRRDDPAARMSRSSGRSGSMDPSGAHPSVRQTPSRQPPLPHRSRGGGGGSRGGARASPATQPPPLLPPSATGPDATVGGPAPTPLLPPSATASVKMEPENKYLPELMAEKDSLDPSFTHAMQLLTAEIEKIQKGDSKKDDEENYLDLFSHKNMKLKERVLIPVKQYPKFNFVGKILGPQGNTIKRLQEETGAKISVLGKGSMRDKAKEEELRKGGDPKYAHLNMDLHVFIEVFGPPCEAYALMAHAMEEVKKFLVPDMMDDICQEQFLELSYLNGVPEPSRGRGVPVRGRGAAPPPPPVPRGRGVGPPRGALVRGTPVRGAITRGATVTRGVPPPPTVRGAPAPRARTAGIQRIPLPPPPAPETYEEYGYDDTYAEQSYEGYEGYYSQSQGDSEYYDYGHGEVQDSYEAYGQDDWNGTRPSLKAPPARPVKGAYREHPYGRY

B1: WT domain 4 probe (ssRNA)
RNA: AAGGGGACCGGGGCUUCUAUAAAAGCGCCCGGUUUAAAAAGCUUCUAUGUCUGAAUAGGUGACCG
- apparent K (half saturation): ~3.16 µM
